These results are taken from the supplement of paper PMC10126150.

The test system of this series is ATP. Kind of series: switch fluorescence ratio, 500 uM ATP over buffer (Cy3 cluster intensity, sum of 5 cycles each) (fold (ratio)); higher = stronger signal-on switching upon ATP binding; sequences stand for … in TCGTCGGCAGCGTCAGATGTGTATAAGAGACAGTTTTTTTTTTTTTTTTTTTTTTTTT…TC. To be noted: aptamer strand: ATP DNA aptamer (quencher-CACCTGGGGGAGTATTGCGGAGGAAGG + anchor), 100 nM annealed; ATP concentration: 500 uM. Put shortly: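 The quencher-labelled ATP aptamer, at 100 nM, was annealed to Cy3-labelled switching-strand clusters on a modified Illumina MiSeq flow-cell. The clusters were imaged in selection buffer, then after 15 min with 500 uM ATP at 22 °C, and this buffer/ATP cycle ran five times with NaOH stripping and re-annealing between runs. Per-cluster fluorescence ratios, summed target-cycle over summed buffer-cycle Cy3 intensity, were averaged per switch-domain sequence. Clusters outside 100-1000 RFU were excluded.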

± gives the standard deviation of the averaged measurements.
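Further: ATP exposure 15 min at 22 °C before imaging.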

As for GGGGAGTGTT, the switch fluorescence ratio was 0.998 ± 0.039.
Consider TGATACTCGC, for which the switch fluorescence ratio stood at 1.18 ± 0.12.
On to CATTAGCCAG, for which the switch fluorescence ratio was determined as 0.99754 ± 0.00029.
GAATCGGGGT: the switch fluorescence ratio was 0.992 ± 0.045.
As to TGCGTGTCTT, the switch fluorescence ratio was determined as 1.01 ± 0.018.
Consider AGCTGATTGC, for which the switch fluorescence ratio was 1 ± 0.02.
As for TCGAGTCGGT, the switch fluorescence ratio was determined as 1.02 ± 0.034.
On to ATCTATAGTG, for which the switch fluorescence ratio came to 0.9651 ± 0.0035.
Consider TCGGCAGGGA, for which the switch fluorescence ratio is 1.01 ± 0.051.
For ATGCTTGATT, the switch fluorescence ratio was determined as 1.017 ± 0.0041.
Consider TATTTAGGTA, for which the switch fluorescence ratio was 1.022 ± 0.0031.
As for GCGTTTATGT, the switch fluorescence ratio worked out at 0.953 ± 0.025.
Under AGTGGGAAGG stands 0.956 ± 0.021.
Turning to CGGGTTATGT, the switch fluorescence ratio worked out at 0.992 ± 0.044.
Regarding AGGCGGCAGC, the switch fluorescence ratio amounted to 0.982 ± 0.02.
For AACCAGTATA, the switch fluorescence ratio turned out to be 0.995 ± 0.024.
With ACGAATGGTG, the switch fluorescence ratio came out at 1.02 ± 0.031.
On to GGTGTTAGAT, for which the switch fluorescence ratio was determined as 0.993 ± 0.035.
For the sequence ATGAATAAAT, the switch fluorescence ratio amounted to 1.012 ± 0.0058.
With TGTTGGGGAC, the switch fluorescence ratio came out at 1.023 ± 0.0065.
For TTATTAAATC, the switch fluorescence ratio came out at 1.008 ± 0.0064.
Regarding CGACCGGGGG, the switch fluorescence ratio is 1.11 ± 0.094.
Regarding TATATAAGAT, the switch fluorescence ratio turned out to be 1 ± 0.058.
Regarding CGAAAATGGT, the switch fluorescence ratio turned out to be 1.04 ± 0.13.
Under ATAAGGAGGT stands 1.012 ± 0.0081.
As for GCATTTGGTC, the switch fluorescence ratio was found to be 1.01 ± 0.023.
On to GAGAGGAGTA, for which the switch fluorescence ratio is 0.967 ± 0.037.
With CCAGTTGATA, the switch fluorescence ratio amounted to 0.991 ± 0.032.
As to TATTTACTCG, the switch fluorescence ratio worked out at 1.05 ± 0.073.
Turning to TTTGCCGTTC, the switch fluorescence ratio turned out to be 1.01 ± 0.042.
In the case of CGTATTTTTA, the switch fluorescence ratio worked out at 1 ± 0.089.
Take CAGCGAGGGG: the switch fluorescence ratio was 1.21 ± 0.32.
Turning to GGGAACGGTA, the switch fluorescence ratio came out at 0.9955 ± 0.0076.
Regarding CAGCTTTTCA, the switch fluorescence ratio worked out at 1.024 ± 0.006.
Take TTTAGGGATA: the switch fluorescence ratio was found to be 1.09 ± 0.19.
Under TCAATCGCTT stands 1.09 ± 0.026.
The result for AGAGCCGGTG reads 1 ± 0.041.
On to CGTTTCAAGG, for which the switch fluorescence ratio was found to be 0.975 ± 0.016.
For GGTTAACCTG, the switch fluorescence ratio came to 0.9959 ± 0.0062.
As to TTACTTTGTT, the switch fluorescence ratio stood at 1.02 ± 0.023.
For the sequence AGTTTTTGTT, the switch fluorescence ratio came to 0.987 ± 0.024.
Turning to GCTGGGACAC, the switch fluorescence ratio was 1.04 ± 0.012.
On to TAGTGTTTGT, for which the switch fluorescence ratio worked out at 0.979 ± 0.017.
Turning to GCGAGCCACG, the switch fluorescence ratio was 1.007 ± 0.0076.
Consider GGTCATTCAA, for which the switch fluorescence ratio is 0.982 ± 0.027.
On to GGGCAATCTT, for which the switch fluorescence ratio was found to be 1.119 ± 0.0083.
Take CAGGGTGCTG: the switch fluorescence ratio came out at 0.973 ± 0.033.
In the case of TTGGGTGGTG, the switch fluorescence ratio turned out to be 0.983 ± 0.033.
Turning to AAAGGTTGAT, the switch fluorescence ratio was 1.01 ± 0.011.
For CCGTCAGGTT, the switch fluorescence ratio is 1.012 ± 0.005.
Turning to TAATTTAGTA, the switch fluorescence ratio is 0.9929 ± 0.0073.
Regarding CGGGAGAACC, the switch fluorescence ratio stood at 0.9981 ± 0.0082.
With GGTAGTGGGT, the switch fluorescence ratio came to 1 ± 0.013.
For the sequence TGTTCGACCG, the switch fluorescence ratio is 1.012 ± 0.01.
Take AACACAGCTC: the switch fluorescence ratio amounted to 1.02 ± 0.024.
The result for TTTGTCGATA reads 1.05 ± 0.025.
Under TGTTTTGATC stands 0.977 ± 0.029; under TCATTTAAGA, 0.954 ± 0.014.
Consider AGATGAGATA, for which the switch fluorescence ratio amounted to 1.005 ± 0.0037.
Turning to GGTCTTACCA, the switch fluorescence ratio came out at 0.98367 ± 0.00036.
Under CAAGGAGTCT stands 1.02 ± 0.035.
As to TCCGTTGTTT, the switch fluorescence ratio stood at 1.03 ± 0.044.
For ATTCTCTTGT, the switch fluorescence ratio stood at 0.996 ± 0.014.
Under TTTTAAGCTG stands 1.05 ± 0.024; under TCAGTTGTAC, 1.08 ± 0.011; under GGGGGATT, 0.996 ± 0.02.
On to TCAAGATTGG, for which the switch fluorescence ratio was 0.986 ± 0.023.
As to TGAAATCCGA, the switch fluorescence ratio came to 1 ± 0.027.
Turning to GAAGGGTACG, the switch fluorescence ratio is 1.07 ± 0.091.
With TTTTCTTCTC, the switch fluorescence ratio came to 1.03 ± 0.028.
For ATACGAGTTA, the switch fluorescence ratio was 1.02 ± 0.021.
In the case of TAACTACGAG, the switch fluorescence ratio was found to be 1.07 ± 0.011.
Turning to TGGGGGATGT, the switch fluorescence ratio is 1.01 ± 0.013.
For TTTGGAGAAA, the switch fluorescence ratio came to 0.989 ± 0.022.
Turning to CGGAACGCGA, the switch fluorescence ratio was determined as 4.09 ± 0.093.
On to TATGGTTTTC, for which the switch fluorescence ratio was 1.01 ± 0.084.
Consider ATAATTTGGG, for which the switch fluorescence ratio stood at 0.99 ± 0.017.
Take TTCAATTTTT: the switch fluorescence ratio is 0.997 ± 0.021.
With AGCCGCCGGG, the switch fluorescence ratio worked out at 1.04 ± 0.013.
Under CGTGGTGTGT stands 0.992 ± 0.0011.
As to ATGTAAGGAG, the switch fluorescence ratio is 1.02 ± 0.018.
As to AAGGGTTAGG, the switch fluorescence ratio was determined as 1.03 ± 0.023.
TAATGGGTGA: the switch fluorescence ratio worked out at 1.03 ± 0.016.
In the case of ATATGGAGAT, the switch fluorescence ratio was 0.98 ± 0.017.
The result for TTTCCATTAT reads 1.01 ± 0.058.
Consider CATCGTATGG, for which the switch fluorescence ratio was 0.954 ± 0.022.
Turning to CGGAAAAGGG, the switch fluorescence ratio came out at 0.993 ± 0.064.
For TTCAAAAAGT, the switch fluorescence ratio was 0.991 ± 0.021.
As to CAGGTCGTTT, the switch fluorescence ratio was 1.032 ± 0.0069.
In the case of ACGAGGCCGG, the switch fluorescence ratio is 0.952 ± 0.077.
In the case of TTGCAAGGGC, the switch fluorescence ratio amounted to 1.08 ± 0.074.
For CTGTATATAG, the switch fluorescence ratio is 1.017 ± 0.0083.
With ATAGGTGAGA, the switch fluorescence ratio came to 1.06 ± 0.02.
As for AACTCATATT, the switch fluorescence ratio amounted to 0.959 ± 0.013.
Under GTACCTATCG stands 1.01 ± 0.03; under CTGAAATTTT, 1.0192 ± 0.00063; under GCTACACAGG, 1.45 ± 0.016.
On to TAGGGGTCCT, for which the switch fluorescence ratio is 1.01 ± 0.046.
Consider ACTTATTGAA, for which the switch fluorescence ratio worked out at 1.11 ± 0.17.
Take TGTATTCAGG: the switch fluorescence ratio worked out at 1.01 ± 0.056.
Under CGGAACATGC stands 1.6 ± 0.12.
Take ATCCGGTTCG: the switch fluorescence ratio came out at 0.9946 ± 0.0095.
Consider TCGGCTGTAT, for which the switch fluorescence ratio amounted to 1.69 ± 0.94.
Consider TCCAGTGGCT, for which the switch fluorescence ratio came out at 1 ± 0.017.
In the case of TAAGACGCAA, the switch fluorescence ratio amounted to 1.62 ± 0.12.
For the sequence CGTGCGTGCT, the switch fluorescence ratio was determined as 1.01 ± 0.023.
For the sequence TGGGGAAAGG, the switch fluorescence ratio worked out at 0.978 ± 0.034.
With CGTGCTGTA, the switch fluorescence ratio came to 1.046 ± 0.0054.
The result for CCTTTTTGAA reads 0.986 ± 0.049; that for TAGGGCACGA, 0.97 ± 0.08.
Under TTTGTGGTTC stands 1 ± 0.039; under GTTTTTGTCA, 1.021 ± 0.008.
For ATAATCGAGT, the switch fluorescence ratio is 0.9837 ± 0.0076.
The result for TGGGACTTTG reads 1.0328 ± 0.001; that for TTTTTTGGTC, 1.03 ± 0.037.
As to CGGCGTAAAA, the switch fluorescence ratio stood at 1.13 ± 0.21.
For GCTTGAGGGG, the switch fluorescence ratio was determined as 1.012 ± 0.0022.
GTTTTCCCGT: the switch fluorescence ratio is 1.03 ± 0.027.
For the sequence CGAGGGTGAG, the switch fluorescence ratio stood at 1.01 ± 0.042.
On to TTGTTCCTTG, for which the switch fluorescence ratio worked out at 1.01 ± 0.022.
